± gives the uncertainty stated by the source.

The data set in a line: self-splicing fitness, log relative to wild type (ln ratio); higher = more splicing; Tetrahymena group I intron in knt gene, E. coli kanamycin selection, DiMSum; sequences stand for … in CUCUCU…GGAGGGAAAAGUUAUCAGGCAUGCACCUGGUAGCUAGUCUUUAAACCAAUAGAUUGCAUCGGUUUAAAAGGCAAGACCGUCAAAUUGCGGGAAAGGGGUCAACAGCCGUUCAGUACCAAGUCUCAGGGGAAACUUUGAGAUGGCCUUGCAAAGGGUAUGGUAAUAAGCUGACGGACAUGGUCCUAACCACGCAGCCAAGUCCUAAGUCAACAGAUCUUCUGUUGAUAUGGAUGCAGUUCACAGACUAAAUGUCGGUCGGGGAAGAUGUAUUCUUCUCAUAAGAUAUAGUCGGACCUCUCCUUAAUGGGAGCUAGCGGAUGAAGUGAUGCAACACUGGAGCCGCUGGGAACUAAUUUGUAUGCGAAAGUAUAUUGAUUAGUUUUGGAGUACUCGUGGUCG
An outline of the steps: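 DiMSum derived fitness as the error-weighted combination of fold changes across replicates, kanamycin versus no kanamycin, normalised to wild type. E. coli BL21(DE3) held the library, which randomised all eight P1ex-region intron nucleotides within the knt kanamycin-resistance gene on pET-22b(+). Six replicate transformations grew overnight at 37°C or 30°C on LB agar with or without 25 μg/mL kanamycin, also containing 100 μg/mL carbenicillin, 50 μM IPTG and 0.2% rhamnose, and pooled colonies were amplicon-sequenced on an Illumina HiSeq 2500.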

As to CGCAAGCAAUAUUACGGGGC, the “self-splicing fitness (ln)” value by setting is: (30 °C) -3.65 ± 0.17; (37 °C) -2.6 ± 0.15.

Consider CGCAAGCAAUAUUACGGGGG, for which the “self-splicing fitness (ln)” value runs as follows: (30 °C) -3.39 ± 0.18; (37 °C) -1.12 ± 0.13.

As to CGCAAGCAAUAUUACGGUCG, the “self-splicing fitness (ln)” value is -2.32 ± 0.11 (30 °C) and -0.33 ± 0.1 (37 °C). The matching figures for CGCAAGCAAUAUUACGGUGC: -4.9 ± 0.29 and -2.53 ± 0.23. CGCAAGCAAUAUUACGUAAU: the “self-splicing fitness (ln)” value was -3.89 ± 0.2 (30 °C) and -2.14 ± 0.17 (37 °C). Take CGCAAGCAAUAUUACGUGAG: the “self-splicing fitness (ln)” value was -2.69 ± 0.13 (30 °C) and -2.15 ± 0.13 (37 °C). For CGCAAGCAAUAUUACGUGCA the same measures were -0.273 ± 0.064 and -0.135 ± 0.075.

Regarding CGCAAGCAAUAUUACGUGUU, the “self-splicing fitness (ln)” value (30 °C) is -3.48 ± 0.11 and the “self-splicing fitness (ln)” value (37 °C) was -2.9 ± 0.14. The matching figures for CGCAAGCAAUAUUACGUUUC: -2.92 ± 0.16 and -2.21 ± 0.23.

With CGCCAGCAAUAUUACGAAAU, the “self-splicing fitness (ln)” value is, setting by setting: (30 °C) -4.66 ± 0.37; (37 °C) -2.69 ± 0.24.

In the case of CGCCAGCAAUAUUACGAACC, the “self-splicing fitness (ln)” value was -2.23 ± 0.22 (30 °C) and -2.02 ± 0.43 (37 °C). In the case of CGCCAGCAAUAUUACGAAGA, the “self-splicing fitness (ln)” value reads like this: (30 °C) -2.64 ± 0.36; (37 °C) -2.2 ± 0.24.

In the case of CGCCAGCAAUAUUACGACCU, the “self-splicing fitness (ln)” value is, setting by setting: (30 °C) -3.15 ± 0.36; (37 °C) -2.15 ± 0.28. The matching figures for CGCCAGCAAUAUUACGAGCU: -3.06 ± 0.097 and -1.59 ± 0.094. Regarding CGCCAGCAAUAUUACGAUGC, the “self-splicing fitness (ln)” value (30 °C) was -3.51 ± 0.38 and the “self-splicing fitness (ln)” value (37 °C) is -1.75 ± 0.2. The matching figures for CGCCAGCAAUAUUACGAUGU: -2.9 ± 0.12 and -1.25 ± 0.1. For CGCCAGCAAUAUUACGCCGA the same measures were -2.87 ± 0.23 and -1.65 ± 0.19. Consider CGCCAGCAAUAUUACGCGAU, for which the “self-splicing fitness (ln)” value runs as follows: (30 °C) -3.87 ± 0.2; (37 °C) -2.22 ± 0.17. The matching figures for CGCCAGCAAUAUUACGCGGA: -2.91 ± 0.2 and -1.99 ± 0.16. The matching figures for CGCCAGCAAUAUUACGCGGC: -4.11 ± 0.47 and -3.03 ± 0.27. Consider CGCCAGCAAUAUUACGCUGU, for which the “self-splicing fitness (ln)” value by setting is: (30 °C) -3.38 ± 0.29; (37 °C) -2.69 ± 0.39. Consider CGCCAGCAAUAUUACGCUUG, for which the “self-splicing fitness (ln)” value reads like this: (30 °C) -2.95 ± 0.13; (37 °C) -1.88 ± 0.15. The matching figures for CGCCAGCAAUAUUACGGAGC: -3.06 ± 0.24 and -2.82 ± 0.48. Regarding CGCCAGCAAUAUUACGGCAU, the “self-splicing fitness (ln)” value reads like this: (30 °C) -1.25 ± 0.081; (37 °C) -0.458 ± 0.088.

For CGCCAGCAAUAUUACGGCCU, the “self-splicing fitness (ln)” value runs as follows: (30 °C) -0.959 ± 0.061; (37 °C) 0.409 ± 0.072.

For CGCCAGCAAUAUUACGGCGC, the “self-splicing fitness (ln)” value is, setting by setting: (30 °C) -3 ± 0.17; (37 °C) -2.23 ± 0.22. The matching figures for CGCCAGCAAUAUUACGGCUC: -0.72 ± 0.22 and -0.0823 ± 0.23. The matching figures for CGCCAGCAAUAUUACGGUCU: -0.989 ± 0.061 and -0.324 ± 0.076. CGCCAGCAAUAUUACGUACC: the “self-splicing fitness (ln)” value is, setting by setting: (30 °C) -3.78 ± 0.29; (37 °C) -2.74 ± 0.3. With CGCCAGCAAUAUUACGUCAG, the “self-splicing fitness (ln)” value is -0.444 ± 0.073 (30 °C) and 0.203 ± 0.095 (37 °C). For CGCCAGCAAUAUUACGUCUA, the “self-splicing fitness (ln)” value (37 °C) was -2.52 ± 0.3. Consider CGCCAGCAAUAUUACGUGGA, for which the “self-splicing fitness (ln)” value was -3.6 ± 0.2 (30 °C) and -2 ± 0.15 (37 °C). The matching figures for CGCCAGCAAUAUUACGUGGC: -3.72 ± 0.2 and -2.5 ± 0.2. Regarding CGCGAGCAAUAUUACGAAAU, the “self-splicing fitness (ln)” value (37 °C) is -2.57 ± 0.27. Regarding CGCGAGCAAUAUUACGAAGU, the “self-splicing fitness (ln)” value is, setting by setting: (30 °C) -3.36 ± 0.21; (37 °C) -2.57 ± 0.31. The matching figures for CGCGAGCAAUAUUACGACGU: -2.39 ± 0.33 and -1.08 ± 0.21. Consider CGCGAGCAAUAUUACGAGGG, for which the “self-splicing fitness (ln)” value is -3.3 ± 0.22 (30 °C) and -2.71 ± 0.22 (37 °C). The matching figures for CGCGAGCAAUAUUACGAUCG: -2.08 ± 0.11 and -2.66 ± 0.29.

(Values after the supplement of paper PMC7877785.)
